According to paper PMC11112126:

Key:
[1] = target: SH3P2 (Arabidopsis thaliana) (UniProt Q8VWF1); experiment: mass photometry; SH3P2 at 75 nM; 25 mM HEPES pH 7.5, 200 mM NaCl, 25 mM KH2PO4 pH 8.0; monomer to dimer
[2] = target: SH3P2 (Arabidopsis thaliana) (UniProt Q8VWF1); experiment: mass photometry; SH3P2 at 100 nM; 25 mM HEPES pH 7.5, 200 mM NaCl, 25 mM KH2PO4 pH 8.0; monomer to dimer

percent of dimers at 75 nM [1]: 60%
percent of dimers at 100 nM [2]: 85%
stoichiometry N [2]: 2
Substance: SH3P2 (from UniProt Q8VWF1 1-368) (natural protein)
